Here are results for two molecules from paper PMC9187738, “Live imaging-based assay for visualising species-specific interactions in gamete adhesion molecules” (Scientific Reports, 2022).

For one experiment, the target named is T1, human JUNO (human, UniProt A6ND01 20-228).
T1 construct: JUNO, human; gene synthesised artificially (Integrated DNA technologies); also called JUNO Human; source: BHK-21 cells, transfected, on cells; not shown: mCherry, internal (just after the signal peptide), kept
Description: live imaging-based adhesion molecule (LIAM) assay; BHK cells, non-inducible expression (cytomegalovirus promoter); separately transfected cells mixed in equal amounts 4 h after transfection, incubated 20 h, imaged every 6 min for 12 h at 40x, 37 °C, 5% CO2; read-outs: accumulation at the cell interface and translocation to the opposite cell, % of contacting cell pairs. Particulars: partners not purified.

The target in another experiment is T2, mouse mCherry-JUNO (mouse, UniProt Q9EQF4 20-222).
T2 construct: JUNO, mouse; CDS amplified from mouse cDNA; also called mouse JUNO; source: BHK-21 cells, transfected, on cells (mifepristone-inducible or cytomegalovirus promoter); also HEK293T cells, transfected, on cells; not shown: mCherry, internal (just after the signal peptide), kept
T2 sequence (looked up): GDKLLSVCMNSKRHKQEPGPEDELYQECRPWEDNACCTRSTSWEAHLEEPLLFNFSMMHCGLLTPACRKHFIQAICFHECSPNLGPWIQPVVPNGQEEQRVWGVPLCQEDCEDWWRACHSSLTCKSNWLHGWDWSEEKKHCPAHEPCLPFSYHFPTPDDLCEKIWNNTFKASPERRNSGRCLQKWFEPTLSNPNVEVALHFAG
The experiment is described as above. Particulars: partners not purified.

T1 sequence (A6ND01 20-228): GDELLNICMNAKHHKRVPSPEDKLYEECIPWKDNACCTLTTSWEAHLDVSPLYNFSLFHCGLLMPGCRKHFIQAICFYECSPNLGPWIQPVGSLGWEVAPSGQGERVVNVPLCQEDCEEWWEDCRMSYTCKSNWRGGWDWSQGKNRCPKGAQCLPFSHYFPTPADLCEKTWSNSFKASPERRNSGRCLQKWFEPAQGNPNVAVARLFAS

B1: human IZUMO1 (natural protein, UniProt Q8IYV9 22-350, looked up)
chain: CVICDPSVVLALKSLEKDYLPGHLDAKHHKAMMERVENAVKDFQELSLNEDAYMGVVDEATLQKGSWSLLKDLKRITDSDVKGDLFVKELFWMLHLQKETFATYVARFQKEAYCPNKCGVMLQTLIWCKNCKKEVHACRKSYDCGERNVEVPQMEDMILDCELNWHQASEGLTDYSFYRVWGNNTETLVSKGKEATLTKPMVGPEDAGSYRCELGSVNSSPATIINFHVTVLPKMIKEEKPSPNIVTPGEATTESSISLQPLQPEKMLASRLLGLLICGSLALITGLTFAIFRRRKVIDFIKSSLFGLGSGAAEQTQVPKEKATDSRQQ
notes: IZUMO1, human; gene synthesised artificially (Integrated DNA technologies); also called IZUMO1 Human; source: BHK-21 cells, transfected, on cells; also HEK293T cells, transfected, on cells; not shown: Venus or mTurquoise2, C-terminal, kept
Regarding B1, the “IZUMO1 accumulation (% of contacting cell pairs)” value with human JUNO turned out to be 27%.

B2: mouse IZUMO1-Venus (natural protein, UniProt Q9D9J7 22-397, looked up)
chain: CIKCDQFVTDALKTFENTYLNDHLPHDIHKNVMRMVNHEVSSFGVVTSAEDSYLGAVDENTLEQATWSFLKDLKRITDSDLKGELFIKELLWMLRHQKDIFNNLARQFQKEVLCPNKCGVMSQTLIWCLKCEKQLHICRKSLDCGERHIEVHRSEDLVLDCLLSWHRASKGLTDYSFYRVWENSSETLIAKGKEPYLTKSMVGPEDAGNYRCVLDTINQGHATVIRYDVTVLPPKHSEENQPPNIITQEEHETPVHVTPQTPPGQEPESELYPELHPELYPELIPTVAQNPEKKMKTRLLILLTLGFVVLVASIIISVLHFRKVSAKLKNASDEVKPTASGSKSDQSLSQQMGLKKASQADFNSDYSGDKSEATEN
notes: IZUMO1, mouse; CDS amplified from mouse cDNA; The methods say Venus or mTurquoise2 for IZUMO1, SPACA6 and CD9; the parent of the W148A mutant is named IZUMO-Venus; also called IZUMO-Venus; source: BHK-21 cells, transfected, on cells (mifepristone-inducible or cytomegalovirus promoter); also HEK293T cells, transfected, on cells; not shown: Venus, C-terminal, kept
In the case of B2, the “IZUMO1 accumulation (% of contacting cell pairs)” value in the experiment with mouse mCherry-JUNO is 72%; with human JUNO, 50%.
